The target in assay [1] is T1, human IL-23 (p19/p40 heterodimer), recombinant (human, UniProt Q9NPF7 20-189; P29460 23-328).
T1 construct: R&D Systems without tags; eBioscience insect heterodimer; Whole entries named; also called hIL-23; rhIL-23
T1 sequence 1: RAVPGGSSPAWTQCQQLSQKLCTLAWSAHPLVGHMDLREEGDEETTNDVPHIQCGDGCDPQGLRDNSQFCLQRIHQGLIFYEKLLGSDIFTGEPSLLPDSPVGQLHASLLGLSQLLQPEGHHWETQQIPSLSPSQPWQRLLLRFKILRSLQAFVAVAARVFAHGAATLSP
T1 sequence 2: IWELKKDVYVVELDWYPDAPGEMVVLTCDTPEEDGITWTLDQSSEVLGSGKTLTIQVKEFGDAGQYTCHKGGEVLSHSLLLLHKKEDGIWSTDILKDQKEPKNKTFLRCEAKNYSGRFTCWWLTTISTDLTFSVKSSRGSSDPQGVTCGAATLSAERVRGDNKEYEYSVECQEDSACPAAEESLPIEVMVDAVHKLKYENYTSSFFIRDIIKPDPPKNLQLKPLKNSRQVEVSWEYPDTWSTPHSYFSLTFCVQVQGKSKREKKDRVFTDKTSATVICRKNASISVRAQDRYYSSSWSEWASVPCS
Nature of the assay: SPR (Biacore T-100), IL-23 immobilised on CM5, bivalent interaction model.

For assay [2], the target named is T1, human IL-23 (p19/p40 heterodimer), …. Nature of the assay: cell-based or functional assay.
Assay [3] shares this target. Nature of the assay: SPR off-rate analysis (Biacore T-100), IL-23 immobilised, 1:1 model.

B1: human IL-23R-Fc soluble receptor (ZymoGenetics) (Fc fusion)
chain: GITNINCSGHIWVEPATIFKMGMNISIYCQAAIKNCQPRKLHFYKNGIKERFQITRINKTTARLWYKNFLEPHASMYCTAECPKHFQETLICGKDISSGYPPDIPDEVTCVIYEYSGNMTCTWNAGKLTYIDTKYVVHVKSLETEEEQQYLTSSYINISTDSLQGGKKYLVWVQAANALGMEESKQLQIHLDDIVIPSAAVISRAETINATVPKTIIYWDSQTTIEKVSCEMRYKATTNQTWNVKEFDTNFTYVQQSEFYLEPNIKYVFQVRCQETGKRYWQPWSSPFFHKTPETVPQVTSKAFQHDTWNSGLTVASISTGHLTSDNRGDIG
Consider B1, for which the Kd in assay [1] turned out to be 0.8 nM. In addition, the “IC50, IL-23-mediated IL-17A/A production in murine splenocytes” value in assay [2] amounted to 26 nM. In addition, the off-rate (koff) in assay [3] is around 0.0004 s⁻¹.

(Values after patent publication WO2009082624A2 (dated 2009).)
